Test system: MS2 coat protein
Test: apparent KD of MS2 coat protein; designed switch direction (-1 OFF switch, 1 ON switch): 1; higher = weaker reporter binding
Method in brief: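 For each design, the apparent KD is the median over clusters of curves fitted to normalised cluster fluorescence. Clusters held RNA switches with common flanks, transcribed on Illumina chips by stalled E. coli RNA polymerase. These were titrated with SNAP-549-labelled MS2 coat protein, doubling from 0.7 or 1.5 nM to 3 µM, without input, with 200 uM small-molecule ligand, or with an oligonucleotide input.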

[1] = Eterna round: R95, input ligand: FMN 200 uM
[2] = Eterna round: R95, input ligand: microRNA oligo, concentration not stated
[3] = Eterna round: R95, input ligand: none
[4] = input ligand: microRNA oligo, concentration not stated

Sequence	apparent KD of MS2 coat protein [1] [nM]	apparent KD of MS2 coat protein [2] [nM]	apparent KD of MS2 coat protein [3] [nM]	apparent KD of MS2 coat protein (input ligand: FMN 200 uM) [nM]	apparent KD of MS2 coat protein [4] [nM]	apparent KD of MS2 coat protein (input ligand: none) [nM]
ACAAGCUUUUUGCUCCUCUUAUGUCCGAAACAUGAGGAUCACCCAUGUAUAGAUUGUGUGUUGUUGUAGAUGCAAGA [JR_SHM208A_Sub061] (puzzle: Sensor for hsa-mir-208a)	69.3	72	71.8			
ACAUAGGUUUCAGGAUAUGGGUAAAUUCCCAACAUGAGGAUCACCCAUGUCCGUAGGGAUAACAUCCAGAAGGGAAGCCACAUA [MOD Eternabot Solution 1 (Score 87.5)] (Eterna round: R96, puzzle: Same State NG 2)				89.3	100	59.4
ACAUGAAAUUUAGGAUAUUUUGUACCUACAUGUGACAUGAGGAUCACCCAUGUGGUAAGUAUGAGAAAGAAGGAAAAGAUAUGU [Equivalence 9 - Jieux - Same State NG 2] (Eterna round: R96, puzzle: Same State NG 2)				71.8	61.6	70.9
ACAUGAGACUUAGGAUAUCUUGUACCUACAUGUGACAUGAGGAUCACCCAUGUGGUAAGUAUGAGAGAGAAGGAAGAGAUAUGU [Equivalence 37 - Jieux - Same State NG 2] (Eterna round: R96, puzzle: Same State NG 2)				19.7	14.4	23.2
ACAUGAGACUUAGGAUAUGUUGUACCUACAUGUGACAUGAGGAUCACCCAUGUGGUAAGUAUGAGGCAGAAGGGAGAGAUAUGU [Equivalence 47 - Jieux - Same State NG 2] (Eterna round: R96, puzzle: Same State NG 2)				54.3	85.6	77.7
ACAUGAGGAGCAGGAUAUCGCAUGAGGAUCACCCGAGAAGGGCUCACACAUGAGGAUCACCCAUGUAUCACCCAUGUAUGUUGA [twils 1] (Eterna round: R96, puzzle: Same State NG 1)				484	105	498
ACGCAGCUGGGUGAGGAUAUUGGUGGUACAACAUGAGGAUCACCCAUGUCCGAAGCUCGGACCCUCGAGAAGGCGCCCGGCUGCG [Soinraesar Omei Mod 5] (puzzle: Same State 2)	122	17.2	62			
ACGCUAAAUGGAGGAUAUGGAGCCUUAUUGGCUCCAGAAGGUCAAAACAUGAGGAUCACCCAUGUGCGGUGGUCUAAUGACCAC [Eli NG1ss - 47] (Eterna round: R96, puzzle: Same State NG 1)				68	99.2	169
AGAAAACAUGAGGAUCACCCAUGUAUAGUGAAUACAGGAUAUCACCGGCGGAAUAGCCAGUGAGAAGGGUGAUCGC [Aarusxe] (puzzle: Same State 1)	71.5	11.5	41			
AGAACAUGACGAGGAUAUGGAACAUGAGGAUCACCCAUGUAUGUUCCAUAACGCGAAUAAAGAAUCCAGAAGGCGUCGUGAAGA [Mat - Same State NG 2 - JL mod - D32] (Eterna round: R96, puzzle: Same State NG 2)				34.5	116	147
AGAAGACAUGAGGAUCACCCAUGUACCUCAUAAGGAGAGAGCGAGGAUAUGUAGAGAGAGAGGGAACAGAAGGUGUGAGAGGAA [Default title] (Eterna round: R96, puzzle: Same State NG 3)				218	99.4	161
AGAGAACAUGAGGAUCACCCAUGUGGGAGAAACAUAGGAUAUAGGAGAGAGAGGGAGGAGCUAGAAGGAUGAUGGA [JR_SS1_Sub082] (puzzle: Same State 1)	80.5	91.1	105			
AGAGGAAGGGCAGGAUAUACGACGGAGGACGAGGUAGAAGGGUCCAUGUGAUAACAUGAGGAUCACCCAUGUACCGCGCGACGA [AK SSNG1-V2-18] (Eterna round: R96, puzzle: Same State NG 1)				147	43.1	832
AGAGGAGGAGCAGGAUAUUCGAAGAAGGACGUGGAAGAAGGGUUCAUGCGAUGACAUGAGGAUCACCCAUGUACCGCGCGAGGA [AK SSNG1-V2-12] (Eterna round: R96, puzzle: Same State NG 1)				63.4	42.6	69
AGAGUGUAUCCACAGGAUAUGCGAGCCGACACAUGAGGAUCACCCAUGUAGUCCUAAAGGGCUGAGCAGAAGGGUGGUAAGGCUC [Xelear] (puzzle: Same State 2)	31.7	169	285			
AGAUAGUGUGGAAAGGAUAUACGGUUGAGGACAUGAGGAUCACCCAUGUAGUAGAGGAAGGAAGGGUAGAAGGUUCAGGAUUGAU [JR_SS2_Sub018] (puzzle: Same State 2)	70.2	43.1	50.4			
AGAUCAUGACGAGGAUAUCCGACAUGAGGAUCACCCAUGUAUGUCGGAGGACGAAUACGUCCAAAGGAGAAGGCGUCGUGGUCA [Mat - Same State NG 2 - JL mod - D38] (Eterna round: R96, puzzle: Same State NG 2)				25.2	62.9	85.4
AGAUCAUGACGAGGAUAUGGUACAUGAGGAUCACCCAUGUAUGUACUAUAACCCGUAUGAGGAAUCCAGAAGGCGUCGUGGUCA [JL SSNG2 1.17] (Eterna round: R96, puzzle: Same State NG 2)				23.8	71.8	85.9
AGCCGAAGCACAGGAUAUACAUGUAUACAUGAGGAUCACCCAUGUAGCAACACGUGGUAGUGAUUGUAGAAGGGUGCUCGGCGC [Omei SS(NG)2 Cv14] (Eterna round: R96, puzzle: Same State NG 2)				21.3	16	25.3
AGCCGAGACGCAGGAUAUAGAUAUCUACAUGAGGAUCACCCAUGUAGCAACACGUGGUAGUGAUUCUAGAAGGGUGCUCGGCGC [Omei SS(NG)2 Cv7] (Eterna round: R96, puzzle: Same State NG 2)				44.9	322	504
AGCCGAGACUGAGGAUAUUUAAAUCUACAUGAGGAUCACCCAUGUAACAACACGUGGUAGUGAUUGAAGAAGGCGGCUCGGCGC [Omei SS(NG)2 Cv2] (Eterna round: R96, puzzle: Same State NG 2)				177	406	404
AGCCGAGACUGAGGAUAUUUUAAUCUACAUGAGGAUCACCCAUGUAACAACACGUGGUAUUGAUAGAAGAAGGCGGCUCGGCGC [Omei SS(NG)2 C] (Eterna round: R96, puzzle: Same State NG 2)				24.3	50.4	64
AGCGCGGUCUCGCAGGAUAUCCACAAUCCUACAUGAGGAUCACCCAUGUCGCUGCAGGAUAUUAGGGAGAAGGGUGAUGCCGCGC [Riorge] (puzzle: Same State 2)		25.2				
AGCUAGGUGGCAGGAUAUGGGCACACCUACAUGAGGAUCACCCAUGUCUAAAGGUUGCAAAAGGACCAGAAGGGCCACGCUAGC [Onzaislege] (Eterna round: R96, puzzle: Same State NG 2)				19.2	82.7	178
AGCUAGUACCAAGGAUAUACGAACAUGAGGAUCACCCAUGUAUACAUGGUUUAAUGAGACUACAUGUAGAAGGUGGUACUAGCA [SameState NG2 #12] (Eterna round: R96, puzzle: Same State NG 2)				387	338	538
AGCUAGUACCGAGGAUAUACAUACAUGAGGAUCACCCAUGUAUACAUGAAAUAAUGAGACUACAUGUAGAAGGCGGUACUAGCA [Mat - Same State NG 2 - JL mod - D45] (Eterna round: R96, puzzle: Same State NG 2)				16.9	43.5	63.4
AGCUAGUACCGAGGAUAUACGAACAUGAGGAUCACCCAUGUAUACAUGGUUUAAUGAGACUACAUGUAGAAGGCGGUACUAGCA [SameState NG2 #11] (Eterna round: R96, puzzle: Same State NG 2)				1110	281	624

Source: the supplement of paper PMC9170038
